B1: non-tagged Net4ΔC (gift from the Koch lab) (domain or fragment, mouse)
chain: CEKACNPRMGNLALGRKLRADTMCGQNATELFCFYSENADLTCRQPKCDKCNAAHSHLAHPPSAMADSSFRFPRTWWQSAEDVHREKIQLDLEAEFYFTHLIMVFKSPRPAAMVLDRSQDFGKTWKPYKYFATNCSATFGLEDDVVKKGAICTSRYSNPFPCTGGEVIFRALSPPYDIENPYSAKVQEQLKITNLRVRLLKRQSCPCQINDLNAKPHHFMHYAVYDFIVKGSCFCNGHADQCLPVEGFRPIKAPGAFHVVHGRCMCKHNTAGSHCQHCAPLYNDRPWEAADGRTGAPNECRTCKCNGHADTCHFDVNVWEASGNRSGGVCNNCQHNTEGQHCQRCKPGFYRDLRRPFSAPDACKACSCHPVGSAILPFSSVTFCDPSNGDCPCKPGVAGPHCDRCMVGYWGFGDYGCRPCDCAGSCDPLTGDC

Experiments:
Test in all cases: ELISA
[1] = target: non-tagged Net4ΔC (gift from the Koch lab) (mouse) (UniProt Q9JI33)
[2] = target: B1
[3] = target: recombinant mouse laminin 111 (Lm111) (mouse, UniProt P19137 25-3083; P02469 22-1786; P02468 34-1607)

Row | Kd [2] [nM] | Molecule | further results
1 |  | γ1ΔC D285R (from UniProt P11047 37-341) (domain or fragment) | Kd [1]: 1.57 nM
2 | 4 ± 0.4 | γ1ΔC D266R (domain or fragment) QAAMDECTDEGGRPQRCMPEFVNAAFNVTVVATNTCGTPPEEYCVQTGVTGVTKSCHLCDAGQPHLQHGAAFLTDYNNQADTTWWQSQTMLAGVQYPSSINLTLHLGKAFDITYVRLKFHTSRPESFAIYKRTREDGPWIPYQYYSGSCENTYSKANRGFIRTGGDEQQALCTDEFSDISPLTGGNVAFSTLEGRPSAYNFDNSPVLQEWVTATDIRVTLNRLNTFGDEVFNRPKVLKSYYYAISDFAVGGRCKCNGHASECMKNEFDKLVCNCKHNTYGVDCEKCLPFFNDRPWRRATAESASECLP | 
3 | 2.28 ± 0.43 | γ1ΔC Y147R (domain or fragment) QAAMDECTDEGGRPQRCMPEFVNAAFNVTVVATNTCGTPPEEYCVQTGVTGVTKSCHLCDAGQPHLQHGAAFLTDYNNQADTTWWQSQTMLAGVQYPSSINLTLHLGKAFDITRVRLKFHTSRPESFAIYKRTREDGPWIPYQYYSGSCENTYSKANRGFIRTGGDEQQALCTDEFSDISPLTGGNVAFSTLEGRPSAYNFDNSPVLQEWVTATDIRVTLNRLNTFGDEVFNDPKVLKSYYYAISDFAVGGRCKCNGHASECMKNEFDKLVCNCKHNTYGVDCEKCLPFFNDRPWRRATAESASECLP | 
4 | 1.89 ± 0.2 | γ1ΔC R149E (domain or fragment) QAAMDECTDEGGRPQRCMPEFVNAAFNVTVVATNTCGTPPEEYCVQTGVTGVTKSCHLCDAGQPHLQHGAAFLTDYNNQADTTWWQSQTMLAGVQYPSSINLTLHLGKAFDITYVELKFHTSRPESFAIYKRTREDGPWIPYQYYSGSCENTYSKANRGFIRTGGDEQQALCTDEFSDISPLTGGNVAFSTLEGRPSAYNFDNSPVLQEWVTATDIRVTLNRLNTFGDEVFNDPKVLKSYYYAISDFAVGGRCKCNGHASECMKNEFDKLVCNCKHNTYGVDCEKCLPFFNDRPWRRATAESASECLP | 
5 |  | B1 | Kd [3]: 0.39 ± 0.07 nM
6 | 2.93 ± 0.51 | γ1ΔC (N-terminal fragment of laminin γ1), human, C-terminally flag-tagged (domain or fragment, N-glycans at N60 and N134) QAAMDECTDEGGRPQRCMPEFVNAAFNVTVVATNTCGTPPEEYCVQTGVTGVTKSCHLCDAGQPHLQHGAAFLTDYNNQADTTWWQSQTMLAGVQYPSSINLTLHLGKAFDITYVRLKFHTSRPESFAIYKRTWEDGPWIPYQYYSGSCENTYSKANRGFIRTGGDEQQALCTDEFSDISPLTGGNVAFSTLEGRPSAYNFDNSPVLQEWVTATDISVTLNRLNTFGDEVFNDPKVLKSYYYAISDFAVGGRCKCNGHASECMKNEFDKLVCNCKHNTYGVDCEKCLPFFNDRPWRRATAESASECLPCDCNGRSQECYFDPELYRSTGHGGHCTNCQDNTDGAHCERCRENFFRLGNNEACSSCHCSPVGSLSTQCDSYGRCSCKPGVMGDKCDRCQPGFHSLTEAGCRPCSCDPSGSIDECNIETGRCVCKDNVEGFNCERCKPGFFNLESSNPRGCTP | 

From publication PMC12328585 (Nature Communications, 2025)
